From patent US20210371484A1 (SYLUS, published 2021)

T1: Soluble mouse EPOR chimera protein (mouse, UniProt P14753 25-249)
T1 construct: Bought reagent (R&D Systems), amine-coupled to a carboxymethylated dextran SPR chip; it says only 'soluble' and 'chimera'; also called Receptor mouse EPOR chimera protein; erythropoietin receptor
T1 sequence (looked up): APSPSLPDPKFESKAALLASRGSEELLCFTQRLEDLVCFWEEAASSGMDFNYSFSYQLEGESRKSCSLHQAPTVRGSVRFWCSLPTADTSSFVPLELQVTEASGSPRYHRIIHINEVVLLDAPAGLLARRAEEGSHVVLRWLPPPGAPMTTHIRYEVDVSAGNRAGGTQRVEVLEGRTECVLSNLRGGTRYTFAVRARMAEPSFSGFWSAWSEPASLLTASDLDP

B1: SY-1 (peptide)
peptide: LQLHVLKAVSGLRTLTTLLRALG
notes: Synthetic 23-mer made as a monomer by solid phase synthesis; No terminal protecting group is stated for the peptide as tested; also called erythropoietin-induced peptide
B2: SY-2 (peptide)
peptide: LQLHVLKAVSGLRTLTMIRRALG
notes: Synthetic 23-mer made as a monomer by solid phase synthesis; also called erythropoietin-induced peptide
B3: SY-3 (peptide)
peptide: LQLHVLKAVAGLRTLTMIRRALA
notes: as for B2

What follows are binders tested against T1, Soluble mouse EPOR chimera protein (assay: SPR (Reichert SR 7500C), mouse EPOR chimera amine-coupled on chip, peptide flowed at 5, 2.5 and 1.25 uM).
Procedure: Specifically, the real-time SPR analysis was performed using Reichert SPR Biosensor SR 7500C equipment (Reichert Inc., NY, USA). Receptor mouse EPOR chimera protein (Soluble mouse EPOR chimera protein)(R&D Systems, Minneapolis, Minn., USA) was covalently bonded to a chip (BR-1005-39, Pharmacia Biosensor AB) coated with carboxy methylated dextran matrix by an amine coupling procedure using an amine coupling kit (BR-1000-50, GE Healthcare, USA) according to the manufacturer's manual. Peptides having concentrations of 5, 2.5 and 1.25 μM according to the present disclosure and scrambled peptides were tested by flowing at a flow rate of 5 μl/minute. In addition, the experiment was independently repeated to increase the accuracy. In addition, DMSO was flowed at 5 μl/minute to normalize the signal. After sufficiently inducing the binding of the peptide of an aspect to the receptor, regeneration was induced by injecting 20 μl/minute of 25 mM acetic acid into a sensor chip.

Binder	Kd
B1	1410 µM
B2	1550 µM
B3	2160 µM
